# Patent US8313731B2 (priority 2002, dated 2012)
# Test system: HeLa cells
# Type: cell-based, Human
molecule,measurement,setting,value
"Holo-neocarzinostatin (protein, UniProt P0A3R9 35-147, looked up, enediyne chromophore bound) Neocarzinostatin: AAPTATVTPSSGLSDGTVVKVAGAGLQAGTAYDVGQCAWVDTGVLACNPADFSSVTADANGSASTSLTVRRSFEGFLFDGTRWGTVDCTTAACQVGLSDAAGNGPEGVAISFN",cell survival,,≥ 90%
same,incubation time within which full cytotoxic effect develops,37° C.,≤ 6 min
same,IC50,read-out: concentration of drug that kills 50% of the cell population,0.71 ± 0.05 nM
